Patent US20260356955 (published 2026)

T1: cynomolgus KLRB1 on CHO-K1 (cynomolgus)
T1 chain: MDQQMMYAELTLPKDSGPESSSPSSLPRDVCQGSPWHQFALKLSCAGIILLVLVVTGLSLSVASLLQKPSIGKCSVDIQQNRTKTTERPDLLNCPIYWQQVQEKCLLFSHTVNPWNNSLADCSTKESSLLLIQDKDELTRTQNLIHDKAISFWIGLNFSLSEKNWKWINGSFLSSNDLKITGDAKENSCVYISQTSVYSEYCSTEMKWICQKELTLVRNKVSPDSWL


Experiments:
human KLRB1 ECD [1] = target: human KLRB1 ECD (human); assay: SPR
human KLRB1 ECD [2] = target: human KLRB1 ECD (human); assay: ELISA
[3] = target: T1, cynomolgus KLRB1 on CHO-K1; assay: FACS
human KLRB1 on CHO-K1 = human KLRB1 on CHO-K1 (human); assay: FACS
human KLRB1 on CHO-K1 (human), sequence (chain, as listed by the source): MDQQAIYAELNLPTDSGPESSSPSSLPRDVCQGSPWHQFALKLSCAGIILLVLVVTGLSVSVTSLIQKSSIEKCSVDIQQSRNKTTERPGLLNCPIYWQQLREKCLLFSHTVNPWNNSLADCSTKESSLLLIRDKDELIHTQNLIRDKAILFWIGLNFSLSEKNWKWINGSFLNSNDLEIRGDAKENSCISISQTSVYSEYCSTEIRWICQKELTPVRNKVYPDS

human KLRB1 ECD (human), sequence (chain, as listed by the source): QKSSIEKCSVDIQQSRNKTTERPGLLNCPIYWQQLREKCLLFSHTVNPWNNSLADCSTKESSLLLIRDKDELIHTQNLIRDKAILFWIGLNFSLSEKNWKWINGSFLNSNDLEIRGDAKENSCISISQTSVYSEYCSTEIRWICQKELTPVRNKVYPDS

| Binder | Kd (human KLRB1 ECD [1]) [nM] | EC50 (human KLRB1 ECD [2]) [nM] | binding result [3] | EC50 (human KLRB1 on CHO-K1) [nM] |
| --- | --- | --- | --- | --- |
| 9C10G11 (antibody, V domains shown) VH: QVQLKESGPGLVAPSQSLSITCTVSGFSLTGYGVNWVRQPPGKGLEWLGMIWGDGSTDYNSALKSRLSISKDNSKSQVFLKMNSLQTDDTARYYCARTYNNYHYWYFDVWGAGTTVTVSS VL: DIQMTQSPASLSASVGETVTITCRASGNIHNYLAWYQQKQGKSPQLLVYNAKTLADGVPSRFSGSGSGTQYSLKINSLQPEDFGSYYCQHFWSTPYTFGGGTKLEIK | 14.8 | – | – | – |
| Hu50A8F2-10 (antibody, V domains shown) VH: QVQLVQSGAEVKKPGASVKVSCKASGYTFIDYYINWVRQAPGQGLEWMGWIFPGSGHTKYNENFKGKVTLTVDTSTSTVYMELSSLRSEDTAVYYCARGDRSALGYFDYWGQGTTVTVSS VL: DIQMTQSPSSLSASVGDRVTITCTASSSVSSTYLHWYQQKPGKAPKLLIYSTSNLASGVPSRFSGSGSGTDYTLTISSLQPEDFATYYCHQYHRSPLTFGQGTKLEIK | – | 0.0187 | no binding | 5.67 |
| Hu50A8F2-13 (antibody, V domains shown) VH: QVQLVQSGAEVKKPGASVKVSCKASGYTFIDYYINWVRQAPGQGLEWIGWIFPGSGHTKYNENFKGKVTLTVDTSTSTVYMELSSLRSEDTAVYFCARGDRSALGYFDYWGQGTTVTVSS VL: DIQMTQSPSSLSASVGDRVTITCTASSSVSSTYLHWYQQKPGKAPKLLIYSTSNLASGVPSRFSGSGSGTDFTLTISSLQPEDFATYYCHQYHRSPLTFGQGTKLEIK | – | 0.0104 | no binding | 5.06 |
| Hu50A8F2-12 (antibody, V domains shown) VH: QVQLVQSGAEVKKPGASVKVSCKASGYTFIDYYINWVRQAPGQGLEWMGWIFPGSGHTKYNENFKGKVTLTVDTSTSTVYMELSSLRSEDTAVYYCARGDRSALGYFDYWGQGTTVTVSS VL: DIQLTQSPSSLSASVGDRVTITCTASSSVSSTYLHWYQQKPGKSPKLLIYSTSNLASGVPSRFSGSGSGTDYTLTISSLQPEDAATYYCHQYHRSPLTFGQGTKLEIK | – | 0.014 | no binding | 5.77 |
| Hu50A8F2-08 (antibody, V domains shown) VH: QVQLVQSGAEVKKPGASVKVSCKASGYTFIDYYINWVRQAPGQGLEWMGWIFPGSGHTKYNENFKGKVTMTVDTSTSTVYMELSSLRSEDTAVYYCARGDRSALGYFDYWGQGTTVTVSS VL: DIQLTQSPSSLSASVGDRVTITCTASSSVSSTYLHWYQQKPGKSPKLLIYSTSNLASGVPSRFSGSGSGTDYTLTISSLQPEDAATYYCHQYHRSPLTFGQGTKLEIK | – | 0.0111 | no binding | 5.44 |
| Hu50A8F2-14 (antibody, V domains shown) VH: QVQLVQSGAEVKKPGASVKVSCKASGYTFIDYYINWVRQAPGQGLEWIGWIFPGSGHTKYNENFKGKVTLTVDTSTSTVYMELSSLRSEDTAVYFCARGDRSALGYFDYWGQGTTVTVSS VL: DIQMTQSPSSLSASVGDRVTITCTASSSVSSTYLHWYQQKPGKAPKLLIYSTSNLASGVPSRFSGSGSGTDYTLTISSLQPEDFATYYCHQYHRSPLTFGQGTKLEIK | – | 0.0121 | no binding | 5.12 |
| Hu50A8F2-09 (antibody, V domains shown) VH: QVQLVQSGAEVKKPGASVKVSCKASGYTFIDYYINWVRQAPGQGLEWMGWIFPGSGHTKYNENFKGKVTLTVDTSTSTVYMELSSLRSEDTAVYYCARGDRSALGYFDYWGQGTTVTVSS VL: DIQMTQSPSSLSASVGDRVTITCTASSSVSSTYLHWYQQKPGKAPKLLIYSTSNLASGVPSRFSGSGSGTDFTLTISSLQPEDFATYYCHQYHRSPLTFGQGTKLEIK | – | 0.0189 | no binding | 5.4 |
| 5B1B11 chimeric (antibody, V domains shown) VH: QVQLQQPGAELVKPGASVKLSCKASGYTFTNYWMHWVKQRPGQGLEWIGEINPSNGRTNFNEKFKSKATLTVDKSSSTAYMQLSSLTSEDSAVYYCARSYDSYYAAVDYWGQGTSVTVSS VL: QIVLTQSPAIMSASLGEEITLTCSASSSVSYMHWYQQKSGTSPKLLIYTTSNLPSGVPSRFSGSGSGTFYSLTISSVEAEDAADYYCHQWSTYPYTFGGGTKLEIK | 0.255 | – | – | – |
| 5A11D10 chimeric (antibody, V domains shown) VH: DVQLQESGPGQVKPSQSLSLTCTVTGYSLTSDFAWNWIRQFPGNKLEWMGDIRYSGSTDYNPSLKTRSSITRDTSKNQFFLHLNSVTTEDTATYYCARGGYYGYDEGYPMDYWGQGTSVTVSS VL: NIVLTQSPASLAVSLGQRATISCRASESVDVYGNSFMHWYQQKAGQPPKLLIYLAFNLKSGVPARFSGSGSRTDFTLTIDPVEADDAATYYCQQNNEDPFTFGSGTKLEIK | 0.0591 | – | – | – |
| Hu50A8F2-07 (antibody, V domains shown) VH: QVQLVQSGAEVKKPGASVKVSCKASGYTFIDYYINWVRQAPGQGLEWMGWIFPGSGHTKYNENFKGKVTMTVDTSTSTVYMELSSLRSEDTAVYYCARGDRSALGYFDYWGQGTTVTVSS VL: DIQLTQSPSSLSASVGDRVTITCTASSSVSSTYLHWYQQKPGKSPKLLIYSTSNLASGVPSRFSGSGSGTDYTLTISSLQPEDFATYYCHQYHRSPLTFGQGTKLEIK | – | 0.0174 | no binding | 5.72 |
| 52G9B12B5 chimeric (antibody, V domains shown) VH: QVQLQQSGAELMQPGTSVKIPCKATGYTFSSFWMEWVKQRPGHGLEWIGEIFPGSGSTNYNEKFKGKATFTADTSSNTAYMQLSSLTSEDSAVYYCATLITTGLTYWGQGTLVTVSA VL: NIVMTQSHKFMSTSVGDRVSITCKASQDVNTAVAWYQQIPGRSPKLLIYWASTRHTGVPDRFTGSGSGTDYTLTISSVQAEDLAFYYCQQHYRIPFTFGAGTKLELK | 4.4 | – | – | – |
| Hu50A8F2-05 (antibody, V domains shown) VH: QVQLVQSGAEVKKPGASVKVSCKASGYTFIDYYINWVRQAPGQGLEWMGWIFPGSGHTKYNENFKGKVTMTVDTSTSTVYMELSSLRSEDTAVYYCARGDRSALGYFDYWGQGTTVTVSS VL: DIQMTQSPSSLSASVGDRVTITCTASSSVSSTYLHWYQQKPGKAPKLLIYSTSNLASGVPSRFSGSGSGTDFTLTISSLQPEDFATYYCHQYHRSPLTFGQGTKLEIK | – | 0.0183 | no binding | 5.51 |
| Hu50A8F2-11 (antibody, V domains shown) VH: QVQLVQSGAEVKKPGASVKVSCKASGYTFIDYYINWVRQAPGQGLEWMGWIFPGSGHTKYNENFKGKVTLTVDTSTSTVYMELSSLRSEDTAVYYCARGDRSALGYFDYWGQGTTVTVSS VL: DIQLTQSPSSLSASVGDRVTITCTASSSVSSTYLHWYQQKPGKSPKLLIYSTSNLASGVPSRFSGSGSGTDYTLTISSLQPEDFATYYCHQYHRSPLTFGQGTKLEIK | – | 0.0144 | no binding | 5.43 |
| Hu50A8F2-02 (antibody, V domains shown) VH: QVQLVQSGAEVKKPGASVKVSCKASGYTFIDYYINWVRQAPGQGLEWMGWIFPGSGHTKYNENFKGRVTMTRDTSTSTVYMELSSLRSEDTAVYYCARGDRSALGYFDYWGQGTTVTVSS VL: DIQMTQSPSSLSASVGDRVTITCTASSSVSSTYLHWYQQKPGKAPKLLIYSTSNLASGVPSRFSGSGSGTDYTLTISSLQPEDFATYYCHQYHRSPLTFGQGTKLEIK | – | 0.0167 | no binding | 5.81 |
